# Data published in the nanobody polyreactivity screen of Harvey et al. (2022).
# Test: yeast display, Sf9 membrane polyspecificity reagent, FACS + sequencing; frameworks hold sequencing errors
# How it was run: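 Polyreactivity labels are assigned by the sorting gate from which each nanobody was recovered. The gates were low and high (top ~1%), set on anti-HA fluorescence for expression and streptavidin fluorescence for reagent binding. Before sorting, galactose-induced (36–48 hours) yeast display cells were stained for 1 hour at 4 °C with 10% biotinylated, detergent-solubilized Sf9 membrane reagent.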
row,Sequence,polyreactivity (PSR sort gate)
1,QVQLVESGGGLVQAGGSLRLSCAASGYIFGYNAMGWYRPAPGKERELVAAISRSAGRTYYADSVKGRFTISRDNAKNTVYLQMNSLKPEDSAVYYCAAQSYWLGYEYWGQGTQVTVSS,high polyreactivity
2,QVQLVESGGGLVQAGGSLRLSCAASGRTFHRYAMGWYRQAPGKERELVATISRGGSTNYADSVKGRFTISRDNAKNTVYLQMHSLKPEDTAVYYCAAESWIYWYPDTGDYWGQGTQVTLSS,high polyreactivity
3,QVQLVESGGGLVQAGGSLRLSCAASGLTLETNAMGWYRQAPGKERELVAGITYSGGTTYYADSVKGRFTISRDNAKNSVYLQINSLKPDDTAVYDCNAGPLRSGRYTYYYWGQGTQVTVSS,low polyreactivity
4,QVQLVESGGGLVQAGGSLRLSCAASGSIFASYAMGWYRQAPGKERELVAAISWNGGSTYYADSVKGRFTISRDNAKNTVYFQMNSLKPEDTAVYYCAAVNRKSQLYGYWGQGTQVTVSS,high polyreactivity
5,QVQLVESGGGLVQAGGSLRLSCAASGSTFLYYAMGWYRQAPGKERELVASITGSGSNTYYADSVKGRFTISRDNAKNTVYLQMNSLKREDTAVYYCATDPQSDIPSWLWYWGEYDYWGHGTQVTVSS,low polyreactivity
6,QVQLVESGGGLVQAGGSLRLSCAASGSIFPVNVMGWYRQAPGKERELVADITSTGTYYADSVKGRFTISRDNAKNTVYLQMNSLKPEDTAVYYCAKAGGSWYRRYYYWGQGTQVTVSS,high polyreactivity
7,QVQLVESGVGLVQAGGSLRLSCAASGLTFGWYAMGWYRQAPGKERELVASITRRSGSTYYADSVKGRFTISRDNAKNTVYLQMNSLKPEDTAVYYCAARSRGTTRFDFWGQGTQVTVSW,high polyreactivity
8,QVQLVESGGGLVQAGGSLRLICAASGRIFRGNAMGWYRQAPGKERELVATISSDGSTNYADSVKGRFTISRDNAKNSVYLQMNSLKPEDTAVYYCAKGFYTITPHGMDYWGQGTQVTVSS,low polyreactivity
9,QVQIVESGGGLVQAGGSLSLSCAASGRTFVLYVMGWYRQAPWKEREFVADINAGGGSTYYADSVKGRFTISRDNAKNTVYLQMNSLKPEDTAVYYCAATRDLGQLFRFGYWGQGTQVTVSS,low polyreactivity
10,QVKLVESGGGLVQAGGSLRLSCAASGFTFALYSMGWYRQAPGKERELVAAITRRGGSTYYADSVKGRFTISRDNAKNTVYVQMNSLKPEDTAVYYCAKRERAIKVSRYDSHDYWGQGTQVTVSS,high polyreactivity
11,QVQLVESGGGLVQPGGSLRLLFAASGSNFVYNEMGWYRQAPGKERELVAGIDWSGDRTYADSVKRRFTNSRDNAKNTVYLQMNSLKQEDTAVKYCNADEWLWDEIIPFAVDYWGQGTQVTVSS,low polyreactivity
12,QVQLVESGGGLVQAGGSLRLSCAASGSNFWSNAMRWYRQAPGKERELVATIDDDVGSTYYADSVKGRFTISRDNAKNTVYFQMNSLKPEDTAVYYCAADTSGADAYTKVRDGYDYWGQGTQVSVSS,low polyreactivity
13,QVQRVESGGGLVQAGGSLRLSCAASGRTFTYYAMGWYRQAPGKERELVAAISSRGGSTYYADSVKGRFTISRDNAKNTVYLQMNSLKPEDTAVYYCAAVLRFTRASRWPDFDYWGQGTQVTVSS,high polyreactivity
14,QVQLVESGGGLVQAGGSLRLSCAASGRTFGSYAMGWYRQAPGKERELVAAISRSGTNTYYADSVKGRFTISRDNAKNTVYLQMNSLKPEDTAVYYCATDFYFSSVLVWFSYGYWGQGTQVTVSS,low polyreactivity
15,QVQLVESGGGLVQAGGRLRLSCAASGRTFVQYAIAWYRQAPGKEREFVAAISSRVGSTYYADSVKGRFTISRDNAKNTVYLQMNSLKPEDTAVYYCNRDLVPRFDYWGQGTQVTVSS,low polyreactivity
16,QVQHVESGGCLVQAGASLRLSCDASGSIFRRNAMGWYRQAPGKERQLVDAITSYGGRTYYADSVKGRFTISRDNAKNTVYFQMNSLKPVDTAVYYCASRYPWGWAMNYWGQGTQVTVSS,high polyreactivity
17,QVQLVESGGGLGQAGGSLRSSCAASGSIICYYAMGWYRQAPGKEWELVATITSGGSTSYADSVKGRFTISRDNAKNTVHLQMNSLKPEDTAVYYCAARNVTKSTYNYWGQGTQVTVSS,low polyreactivity
18,QVQLVESGGGLVQAGGSLRLSCAASGLTLGSYAMGWYRQAPGKERELVAAISRRSGRTYYADSVKGRFTISRDNAKNTVYLKMNSLKPEDTAVDYCNRGYTAQVYTEFDYWGQGTQVTVSS,low polyreactivity
19,QVQLVESGGGLVQAAGSLRLSCAASGSTFPYYAMGWYRQAPGQERELVAAIPRSGGSTYSADSVKGRFTISRDHAKNTVYLQMNSLKPEDTAVYYCAAKLAQRYFYRYDYWGPGTQVTVSS,high polyreactivity
20,QVHLVESGGGLVQAGGSLRLSCAASGSTFRGYGMGWYRQAPGKERELVAAISWRAASTYYADSVKGRFTISRDNAKNTVYLQMNSLKPEDTAVYYCAARYSFSSSTRYYYWGQGTQVTVSS,high polyreactivity
21,QVQLVESGGGLVQAGGSLRLSCAASGITFNYYAMGWYRQAPGKERELVAVISSSGGRTYYADSVKGRFTISRDNAKNTVYLQMNSLKPEDTAVYYCAAGGSVAFYYWGQGTQVTVSS,high polyreactivity
22,QVQLVESGGGLVQARGSLRLSCAASGFIVSPNVMGWYRQAPGKERELVAVISSTGSTYYADSVKGRFTISRDNAKNTVYLQMNSLKPEDTAVYHCNADYSWYGSSGRPGYDYWGQGTQVTVSS,low polyreactivity

row,Sequence,polyreactivity (PSR sort gate)
1,QVQLVESGGGLVQAGGSLRLSCAASGITFRHYAMGWYRQAPGKERELVAAITSRGGSTYYADSVKGRFTISRDNAKNTVYLQMNSLKPEDTAVYYCAARRRLRAPDDYWGQGTQVTVSS,high polyreactivity
2,QVQLVESGGGLVQAGGSLRLSCPAYGSTFGEYAMGWYRQKPGKERELVATITSAGSTYYADSVKGRFTISRDNAKNTVYLLMNSLKPEDTAVYYCAVDPISQGHMDYWGQGTQVTVSS,low polyreactivity
3,QVQLVESGGCLVQAGGSLRLRCAASGFMFGSYAMGWYRQAPGKERELVAAISRRGSSTSYADSVKGRFTISRDNAKNTVYLQMNSLKPEDTAVYFCAPPYLKKWGYYFDGNYWGQGTQVTVSS,high polyreactivity
4,QVQLVESGGGLVQAGGSLRLSCAASGRTSQYYAMGWYRPAPGKERELVASISRSGRTYYADSVKGRFTISRDNAKNTVYLQMNSLKPEDTAVYYCAAAKRTTHRYPYDYWGQGTQVTVSS,high polyreactivity
5,QVQLVESGGGLVQAGGSLRLSCAASGRTFGTNTMGWYRQAPGKEREFVATITSSGGSTYYADSVKGRFTISRDNAKNTVYVQINSLKPEATAVYYCATDPYGGNTLYPSLRYDYWGQGTQVTVSS,low polyreactivity
6,QVQLVESGGGLVQAGGSLRLSCAASGSIFRGYAMGWYRQATGKERELVATIDSSAGSTYYADSVKGRFTISRDNAKNTVYLQMHSLKPEDTAVYYCATDPYGYYYSGFDYWGQGTQVTVSS,low polyreactivity
7,QVQLVESGGGLVQAGGSLRLSCAASGRTFPYYTMGWYRQAPGKERELVAAISRSGGSTYYADSVKGRFTISRDNAKNTVYLQMNSLKPEDTAVYYCAAGIYRYNRYWGYNYWGQGTQVTVSS,high polyreactivity
8,QVQLVESGGGLVQAGGSLRLSCAASGRTLWANAMGWYRQAPGKERELVAAITYSGGSTHYADSVKGRFTISRDNAKNTVYLQMNSLKPEDTAVYYCNADYDSYYTYLYDYWGQGTQVTVSS,low polyreactivity
9,QVQLVESGGGLVQAGGSLRLSCAASGFNFRVNAMGWYRQAPGKERELVAAITKSGGSTYYADSVKGRFTISRDNAKNTVYLQMNSLKPEDTAVYYCNVVWQYSTYVRYNYWGQGTQVTVSS,low polyreactivity
10,QVHLVESGGGLVQAGGSLRLSCAASGSIFYDYAMVWYIQAPGKERELVAAINSGDSTYYADSVKGRFTISRDNAKNTVYLQMNSLKPEDTAVYFCAATYFSPYIEYDYWGQGTQVTVSS,low polyreactivity
11,QVQLVDSGGGLVQAGGSLRLSCSASGIIIKWYTMVWYRQAPGKEREFVAAISYGGGSTSYADSVKGRFTISRDNAKNTVYLQMNSLKPEDTAVYYCAVVWQGAYSRTNYYYWGQGTQVTVSS,low polyreactivity
12,QVQLVESGGGLVQAGGSLRLSCAASGRTLRYYAMGWYRQAPGTERELVASISIGGSTYYADSVKGRFTISRDNAKNTVYLQMHSQKPEATAVYYCATDYSTSGYGYWGQGTQVTVST,low polyreactivity
13,QVQLVESGGGLVQAGGSLRLSCAASGRIFKTNAMGWYRQAPGKERELVAGITSGGGTNYADSVKGRFTISRDNAKNTVYLQMNSLKPEDTAVYYCAKDRNFRHIKYSWGGYPYTMDYWGQGTQVTVSS,low polyreactivity
14,QVQLVESGGGLVQAGGSLRLSCAASGFIFWGNAMGWYRQAPGKERELVAAITYSGDRTYYADSVKGRFTISRDNAKNTVYLQMNSLKPEDTAVYYCNADLALRSRYGEYDYWGQGTQVTVSS,high polyreactivity
15,QVQLVESGGGLVQAGGSLRLSCAASGITFRQNTMGSYRQAPGKEGELVAAITSSGRTYYADSVKGRFTISRDNAKNTVYLQMNSLKPEDSAVYYCAADTYYFGYGYWGQGTQVTVSS,high polyreactivity
16,QVQLVESGGGLVQAGGSLRLSCAASGSIFYYYAMGWYRQAPGKERELVASISTDGSTYADSVKGRFTISRDNAKNTVYLQMNSLKPEDTAVYYCNADTRGEYTYVSWYDYWGQGTQVTVSS,low polyreactivity
17,QVQLVESGGGLVQAGGSLRLSCSSSGRIFNDYAMGWYRKAPGKERELVATYADSEKGRFTISRYTAKKTVYLQMNSLKPEDTAVYYCAADFPSFPDFRPEYDYWGQGPQVTVSS,low polyreactivity
18,QVQLVESGGGLVQAGGSLRLSCAASGSTFYRNAMGWYRQAPGKEREFVADITLGGGSTYYADSVKGRFTISRDNAKNTVYLQMNSRKPEDTAVYYCAVDYWQLNYDYWGQGTQVTVSS,low polyreactivity
19,QVQLVESGGGLFQAGGNLRLSCAASGRTFYPNAMGWYRQAPGKERELVAGIRSSGDSTYYADSVKVRFTISRDNAKNTVYFQMNSLKPEDTAVYYCNRDLTPSYDYWGQGSQVTVSS,low polyreactivity
20,QVQRVESGGGLVQAGGSLRLSCAASGSIFRTYAMRWYRQAPGTERELVAAITSRGSSTYYADSVKGRFTISRDNAKNTVYLQMNSLKPEDTAVYSCPADYRTSYKGVLFSMYYWGQGTQVTVSS,high polyreactivity
21,QVQLVESGGGLVQAGGSLRLSCAASGITFYDNAMGWDRQAPGKEREFVAAISKSGGNTYYADSVKGRFTISRDNAKNTVYLQMNSLKPEDTAVYYCDARTQAFSRKGYGYWGQGTQVTVSS,high polyreactivity
